Data on ten sequences can be found in the Immune Epitope Database (IEDB).

Some results are limits rather than exact numbers.

Assay [1] has as its target HLA-B*40:01. Put plainly: IEDB peptide-MHC binding, purified MHC/direct/fluorescence; filed as Kd, often an IC50 or EC50 that approximates it; ≥ and ≤ were set here for values at or beyond the usual limits of such assays.
Assay [2] concerns the target HLA-A*03:01. Described as above.
For assay [3], the target named is HLA-B*07:02. Described as above.
In assay [4] the target is HLA-A*69:01. Described as above.
In assay [5] the target is HLA-B*44:02. The description is as above.
In assay [6] the target is HLA-A*01:01. The description is as above.
Assay [7] concerns the target HLA-B*58:01. Described as above.
In assay [8] the target is HLA-B*73:01. Described as above.
Assay [9] addresses HLA-B*27:05. The assay is described as above.
The target in assay [10] is HLA-B*15:01. The assay is described as above.
The target of assay [11] is HLA-A*26:01. The description is as above.
Assay [12] addresses HLA-B*08:01. The description is as above.
For assay [13], the target named is HLA-A*30:01. Described as above. As to conditions: source organism: Vibrio parahaemolyticus.
The target in assay [14] is HLA-A*02:01. The assay is described as above.
The target in assay [15] is HLA-A*11:01. The description is as above.
Assay [16] addresses HLA-C*08:02. The description is as above. As to conditions: source organism: Xenopus laevis.
The target in assay [17] is HLA-B*48:01. The description is as above.
Assay [18] has as its target HLA-B*08:02. The assay is described as above. To be noted: source organism: Cryptosporidium parvum Iowa II.
Assay [19] deals with HLA-B*15:09. Described as above.
The target of assay [20] is HLA-B*46:01. The assay is described as above.
For assay [21], the target named is HLA-A*24:02. The assay is described as above.
Assay [22] has as its target HLA-A*31:01. The description is as above.
Assay [23] concerns the target HLA-B*27:05. In words: IEDB peptide-MHC binding, purified MHC/competitive/fluorescence; filed as Kd, often an IC50 or EC50 that approximates it; ≥ and ≤ were set here for values at or beyond the usual limits of such assays. To be noted: source organism: Escherichia coli B171.
In assay [24] the target is HLA-A*02:01. Described as above. As to conditions: source organism: Escherichia coli B171.
Assay [25] concerns the target HLA-B*39:01. The assay is described as above. As to conditions: source organism: Escherichia coli B171.
Assay [26] has as its target HLA-B*18:01. Put plainly: IEDB peptide-MHC binding, purified MHC/direct/fluorescence; filed as Kd, often an IC50 or EC50 that approximates it; ≥ and ≤ were set here for values at or beyond the usual limits of such assays.
In assay [27] the target is HLA-A*24:03. Described as above. As to conditions: source organism: Orthohantavirus hantanense.
Assay [28] deals with HLA-A*23:01. Described as above. As to conditions: source organism: Orthohantavirus hantanense.
Assay [29] deals with HLA-A*02:16. Described as above. As to conditions: source organism: Influenza A virus H3N2.
Assay [30] has as its target HLA-A*02:11. Described as above. To be noted: source organism: Influenza A virus H3N2.
The mark [31] stands for this setting: source organism: Vibrio parahaemolyticus.
The mark [32] stands for this setting: source organism: Bacillus anthracis.
Setting [33] is: source organism: Cryptosporidium parvum.
[34] abbreviates: source organism: Listeria monocytogenes.
[35] abbreviates: source organism: Brucella abortus.
Setting [36] is: source organism: Giardia lamblia ATCC 50803.
The mark [37] stands for this setting: source organism: Influenza A virus (A/swine/Cotes d'Armor/800/00(H1N2)).
Where [38] appears, read: source organism: Influenza A virus (A/Puerto Rico/8/34/Mount Sinai(H1N1)).

On to IRSCWRYRK, for which the Kd in [1] (setting [31]) is at least 20 µM; in assay [2] (setting [31]), 7.86 µM; in assay [3] (setting [31]), at least 20 µM; in [4] (setting [31]) it was at least 20 µM; in assay [5] (setting [31]), at least 20 µM; in assay [6] (setting [31]), at least 20 µM. For the same sequence, the Kd in [7] (setting [31]) is at least 20 µM; in assay [8] (source organism: Vibrio parahaemolyticus AQ3810), 3.88 µM; in assay [9] (setting [31]), 0.0748 µM; in assay [10] (setting [31]) it was at least 20 µM; in assay [11] (setting [31]), at least 20 µM; in assay [12] (setting [31]), at least 20 µM. In addition, the Kd was 0.516 µM in assay [13], at least 20 µM in assay [14] (setting [31]) and 2.14 µM in [15] (setting [31]).
As to YLDDPDLKY, the Kd in [4] (source organism: Homo sapiens) is 18 µM; in [6] (source organism: Homo sapiens) it was 0.0668 µM; in [10] (source organism: Homo sapiens) it was 0.437 µM; in assay [16], at least 20 µM; in assay [14] (source organism: Homo sapiens) it was 3.36 µM; in assay [15] (source organism: Homo sapiens) it was at least 24.4 µM.
RRMMMRITE: the Kd was at least 20 µM in assay [17] (setting [32]), 1.15 µM in assay [8] (source organism: Bacillus cereus B4264) and 0.28 µM in assay [9] (setting [32]).
For NTSTCFQEY, the Kd in [1] (setting [33]), in assay [2] (setting [33]), in [18], in assay [3] (setting [33]), in assay [4] (setting [33]) and in assay [5] (setting [33]) was at least 20 µM throughout. The Kd is 0.0305 µM in [6] (setting [33]); at least 20 µM in assay [7] (setting [33]); at least 20 µM in assay [19] (source organism: Cryptosporidium parvum Iowa II); at least 20 µM in assay [9] (setting [33]); at least 20 µM in [20] (setting [33]); 0.592 µM in [10] (setting [33]). Besides, the Kd in assay [21] (setting [33]) and in [14] (setting [33]) was at least 20 µM throughout.
For the sequence KRYKQMCTK, the Kd in [17] (setting [34]) was at least 20 µM; in assay [8] (source organism: Listeria monocytogenes serotype 4b str. H7858) it was at least 20 µM; in assay [9] (setting [34]) it was 0.177 µM.
Turning to GRKTPLLCF, the equilibrium dissociation constant (Kd) in assay [1] (setting [35]), in assay [2] (setting [35]), in [3] (setting [35]), in [22] (setting [35]), in assay [4] (setting [35]) and in [5] (setting [35]) was at least 20 µM each time. The Kd in assay [6] (setting [35]) was at least 20 µM; in assay [7] (setting [35]), at least 20 µM; in assay [8] (source organism: Brucella suis 1330) it was at least 20 µM; in [9] (source organism: Brucella melitensis), 0.939 µM; in [10] (setting [35]), at least 20 µM; in assay [11] (setting [35]) it was at least 20 µM. For the same sequence, the Kd in assay [12] (setting [35]), in assay [14] (setting [35]) and in assay [15] (setting [35]) was at least 20 µM in each case.
In the case of QTNLYNLLY, the Kd in [23] was at least 20 µM; in assay [24], 4 µM; in [25], at least 20 µM.
Turning to IFKNLTKPL, the Kd in assay [1] (setting [36]), in assay [2] (setting [36]), in assay [3] (setting [36]), in [4] (setting [36]), in assay [5] (setting [36]) and in assay [6] (setting [36]) was at least 20 µM in each case. The Kd in [7] (setting [36]) was at least 20 µM; in assay [19] (setting [36]), at least 20 µM; in [9] (setting [36]), at least 20 µM; in assay [10] (setting [36]), 0.757 µM; in assay [26] (setting [36]), at least 20 µM; in [21] (setting [36]), at least 20 µM. Moreover, the Kd in assay [12] (setting [36]) was 0.774 µM; in [14] (setting [36]) it was at least 20 µM; in assay [15] (setting [36]), at least 20 µM.
As for QWLIEPCKL, the Kd in [27] came to 0.205 µM; in assay [28] it was 0.18 µM; in [21] (source organism: Orthohantavirus hantanense), 0.155 µM.
As to GMDPRMCSL, the Kd in [1] (setting [37]) is at least 20 µM; in assay [29], 0.019 µM; in assay [2] (setting [37]) it was at least 20 µM; in assay [3] (setting [38]), 1.66 µM; in [22] (setting [37]) it was at least 20 µM; in assay [4] (setting [37]) it was at least 20 µM. The Kd in assay [5] (setting [37]), in [6] (setting [37]), in assay [7] (setting [37]), in [9] (setting [37]), in [20] (setting [37]) and in [10] (setting [37]) was at least 20 µM throughout. In addition, the Kd was at least 20 µM in [26] (setting [37]); at least 20 µM in assay [21] (setting [37]); 6.22 µM in [12] (setting [38]); 0.392 µM in [14] (setting [38]); 0.011 µM in assay [30]; at least 20 µM in [15] (setting [37]).
